Assay results: US20230391887A1

Experiments:
[1] = target: meditope-enabled Trastuzumab v2.0 (83E meditope enabled antibody trastuzumab); experiment: SPR, antibody immobilized at 150 RU, 37 C, 1:1 fit
[2] = target: meditope-enabled Trastuzumab v2.0 (83E meditope enabled antibody trastuzumab); experiment: SPR, antibody immobilized at 1500 RU, 37 C
[3] = target: meditope-enabled Trastuzumab v2.0 (83E meditope enabled antibody trastuzumab); experiment: SPR, antibody immobilized at 750 RU, 37 C, 1:1 fit
[4] = target: meditope-enabled Trastuzumab v2.0 (83E meditope enabled antibody trastuzumab); experiment: SPR, antibody immobilized at 1500 RU, 37 C, 1:1 fit

Kd [1]: 51.2 nM
koff [1]: 0.00045 s⁻¹
kon [1]: 8700 M⁻¹ s⁻¹
t1/2 [1]: 0.4 h
fold improvement of half-life against the monovalent meditope [2]: > 30 fold
half-life [2]: 2.42 h
Kd [3]: 14 nM
koff [3]: 0.00014 s⁻¹
kon [3]: 10000 M⁻¹ s⁻¹
t1/2 [3]: 1.3 h
Kd [4]: 8.2 nM
koff [4]: 8e-05 s⁻¹
kon [4]: 9800 M⁻¹ s⁻¹
t1/2 [4]: 2.4 h
B1: trivalent meditope (TVM) (protein)
chain: GGSAAPSSAPSPSAPCQFDLSTRRLSCGGASPAASPSAPSSPAPKAPSAAPSSAPSPSAPGGCQFDLSTRRLSCGGASPAASPSAPSSPAPKAPSAAPSSAPSPSAPGGCQFDLSTRRLSCGGSPSAPSSPSSPKLPETG
